In patent US20100260668A1 (published 2010):

B1: DVD468 (bispecific antibody, human IgG1, kappa)
heavy: not shown
light: DIQMTQSPSSLSASVGDRVTITCRASQVIRRSLAWYQQKPGKAPKLLIYAASNLASGVPSRFSGSGSGTDFTLTISSLQPEDFATYYCQQSNTSPLTFGQGTKVEIKRTVAAPDIQMTQSPSSLSASVGDRVTITCRASQDVSTAVAWYQQKPGKAPKLLIYSASFLYSGVPSRFSGSGSGTDFTLTISSLQPEDFATTYYCQQSYTGTVTFGQGTKVEIKRTVAAPSVFIFPPSDEQLKSGTASVVCLLNNFYPREAKVQWKVDNALQSGNSQESVTEQDSKDSTYSLSSTLTLSKADYEKHKVYACEVTHQGLSSPVTKSFNRGEC
notes: DVD-Ig; N-term; AB071 (VEGF), C-term; AB015 (DLL4); HC linker short, LC linker short; also called DVD468H; DVD468L
B2: DVD509 (bispecific antibody, human IgG1, kappa)
heavy: not shown
light: DIQMTQSSSYLSVSLGGRVTITCKASDHINNWLAWYQQKPGNAPRLLISGATSLETGVPSRFSGSGSGKDYTLSITSLQTEDVATYYCQQYWSIPLTFGAGTKLELKRTVAAPSVFIFPPDIQMTQSPSSLSASVGDRVTITCRASQVIRRSLAWYQQKPGKAPKLLIYAASNLASGVPSRFSGSGSGTDFTLTISSLQPEDFATYYCQQSNTSPLTFGQGTKVEIKRTVAAPSVFIFPPSDEQLKSGTASVVCLLNNFYPREAKVQWKVDNALQSGNSQESVTEQDSKDSTYSLSSTLTLSKADYEKHKVYACEVTHQGLSSPVTKSFNRGEC
notes: DVD-Ig; N-term; AB072 (DLL4), C-term; AB071 (VEGF); HC linker short, LC linker long; also called DVD509H; DVD509L
B3: DVD503 (bispecific antibody, human IgG1, kappa)
heavy: not shown
light: DIQMTQSSSYLSVSLGGRVTITCKASDHINNWLAWYQQKPGNAPRLLISGATSLETGVPSRFSGSGSGKDYTLSITSLQTEDVATYYCQQYWSIPLTFGAGTKLELKRTVAAPDIQMTQSPSSLSASVGDRVTITCRASQVIRRSLAWYQQKPGKAPKLLIYAASNLASGVPSRFSGSGSGTDFTLTISSLQPEDFATYYCQQSNTSPLTFGQGTKVEIKRTVAAPSVFIFPPSDEQLKSGTASVVCLLNNFYPREAKVQWKVDNALQSGNSQESVTEQDSKDSTYSLSSTLTLSKADYEKHKVYACEVTHQGLSSPVTKSFNRGEC
notes: DVD-Ig; N-term; AB072 (DLL4), C-term; AB071 (VEGF); HC linker long, LC linker short; also called DVD503H; DVD503L
B4: DVD494 (bispecific antibody, human IgG1, kappa)
heavy: not shown
light: DIQMTQSPSSLSASVGDRVTITCSASQDISNYLNWYQQKPGKAPKVLIYFTSSLHSGVPSRFSGSGSGTDFTLTISSLQPEDFATYYCQQYSTVPWTFGQGTKVEIKRTVAAPSVFIFPPDIQMTQSSSYLSVSLGGRVTITCKASDHINNWLAWYQQKPGNAPRLLISGATSLETGVPSRFSGSGSGKDYTLSITSLQTEDVATYYCQQYWSIPLTFGAGTKLELKRTVAAPSVFIFPPSDEQLKSGTASVVCLLNNFYPREAKVQWKVDNALQSGNSQESVTEQDSKDSTYSLSSTLTLSKADYEKHKVYACEVTHQGLSSPVTKSFNRGEC
notes: DVD-Ig; N-term; VD VEGF (AB014), C-term; VD DLL4 (AB072); HC linker long, LC linker long; also called DVD-Ig DVD494; DVD494H
B5: DVD506 (bispecific antibody, human IgG1, kappa)
heavy: not shown
light: B4 light
notes: DVD-Ig; N-term; VD VEGF (AB014), C-term; VD DLL4 (AB072); HC linker short, LC linker long; also called DVD-Ig DVD506; DVD506H
B6: DVD470 (bispecific antibody, human IgG1, kappa)
heavy: not shown
light: DIQMTQSPSSLSASVGDRVTITCSASQDISNYLNWYQQKPGKAPKVLIYFTSSLHSGVPSRFSGSGSGTDFTLTISSLQPEDFATYYCQQYSTVPWTFGQGTKVEIKRTVAAPSVFIFPPDIQMTQSPSSLSASVGDRVTITCRASQDVSTAVAWYQQKPGKAPKLLIYSASFLYSGVPSRFSGSGSGTDFTLTISSLQPEDFATTYYCQQSYTGTVTFGQGTKVEIKRTVAAPSVFIFPPSDEQLKSGTASVVCLLNNFYPREAKVQWKVDNALQSGNSQESVTEQDSKDSTYSLSSTLTLSKADYEKHKVYACEVTHQGLSSPVTKSFNRGEC
notes: DVD-Ig; N-term; VD VEGF (AB014), C-term; VD DLL4 (AB015); HC linker long, LC linker long; also called DVD-Ig DVD470; DVD470H
B7: DVD482 (bispecific antibody, human IgG1, kappa)
heavy: not shown
light: B6 light
notes: DVD-Ig; N-term; VD VEGF (AB014), C-term; VD DLL4 (AB015); HC linker short, LC linker long; also called DVD-Ig DVD482; DVD482H
B8: DVD518 (bispecific antibody, human IgG1, kappa, lambda)
heavy: not shown
light: DIQMTQSPSSLSASVGDRVTITCSASQDISNYLNWYQQKPGKAPKVLIYFTSSLHSGVPSRFSGSGSGTDFTLTISSLQPEDFATYYCQQYSTVPWTFGQGTKVEIKRTVAAPSVFIFPPQAVVTQESALTTSPGETVTLTCRSSTGAVTTSNYANWVQEKPDHLFTGLIGGTNNRAPGVPARFSGSLIGDKAALTITGAQTEDEAIYFCALWYSNHWVFGGGTKLTVLGQPKAAPSVTLFPPSSEELQANKATLVCLISDFYPGAVTVAWKADSSPVKAGVETTTPSKQSNNKYAASSYLSLTPEQWKSHRSYSCQVTHEGSTVEKTVAPTECS
notes: DVD-Ig; N-term; VD VEGF (AB014), C-term; VD DLL4 (AB073); HC linker long, LC linker long; also called DVD-Ig DVD518; DVD518H
B9: DVD530 (bispecific antibody, human IgG1, kappa, lambda, L234A L235A)
heavy: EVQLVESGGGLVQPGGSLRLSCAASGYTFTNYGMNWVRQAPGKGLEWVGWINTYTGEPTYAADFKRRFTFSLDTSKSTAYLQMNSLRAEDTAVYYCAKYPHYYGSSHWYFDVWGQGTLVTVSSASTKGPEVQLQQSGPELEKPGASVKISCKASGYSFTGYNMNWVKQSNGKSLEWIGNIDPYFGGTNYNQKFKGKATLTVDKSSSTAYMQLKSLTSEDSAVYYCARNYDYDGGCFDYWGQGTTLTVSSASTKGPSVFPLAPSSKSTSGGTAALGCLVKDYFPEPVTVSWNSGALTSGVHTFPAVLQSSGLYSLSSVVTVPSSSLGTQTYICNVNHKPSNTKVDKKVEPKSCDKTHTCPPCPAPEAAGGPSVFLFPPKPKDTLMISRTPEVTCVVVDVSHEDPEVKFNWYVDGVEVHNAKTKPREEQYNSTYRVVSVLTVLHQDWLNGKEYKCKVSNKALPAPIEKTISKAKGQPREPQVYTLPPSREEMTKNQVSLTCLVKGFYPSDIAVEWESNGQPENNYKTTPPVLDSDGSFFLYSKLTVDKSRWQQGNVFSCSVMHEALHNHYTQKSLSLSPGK
light: B8 light
notes: DVD-Ig; N-term; VD VEGF (AB014), C-term; VD DLL4 (AB073); HC linker short, LC linker long; also called DVD-Ig DVD530; DVD530H
B10: DVD043 (bispecific antibody, human IgG1, kappa)
heavy: not shown
light: DIQMTQSPSSLSASVGDRVTITCSASQDISNYLNWYQQKPGKAPKVLIYFTSSLHSGVPSRFSGSGSGTDFTLTISSLQPEDFATYYCQQYSTVPWTFGQGTKVEIKRTVAAPDIQMTQSPSSLSASVGDRVTITCRASQDVSTAVAWYQQKPGKAPKLLIYSASFLYSGVPSRFSGSGSGTDFTLTISSLQPEDFATTYYCQQSYTGTVTFGQGTKVEIKRTVAAPSVFIFPPSDEQLKSGTASVVCLLNNFYPREAKVQWKVDNALQSGNSQESVTEQDSKDSTYSLSSTLTLSKADYEKHKVYACEVTHQGLSSPVTKSFNRGEC
notes: DVD-Ig; N-term; VD VEGF (AB014), C-term; VD DLL4 (AB015); HC linker short, LC linker short; also called DVD-Ig DVD043; DVD043H
B11: DVD476 (bispecific antibody, human IgG1, kappa)
heavy: not shown
light: B10 light
notes: DVD-Ig; N-term; VD VEGF (AB014), C-term; VD DLL4 (AB015); HC linker long, LC linker short; also called DVD-Ig DVD476; DVD476H
B12: DVD467 (bispecific antibody, human IgG1, kappa)
heavy: not shown
light: DIQMTQSPSSLSASVGDRVTITCRASQDVSTAVAWYQQKPGKAPKLLIYSASFLYSGVPSRFSGSGSGTDFTLTISSLQPEDFATTYYCQQSYTGTVTFGQGTKVEIKRTVAAPDIQMTQSPSSLSASVGDRVTITCRASQVIRRSLAWYQQKPGKAPKLLIYAASNLASGVPSRFSGSGSGTDFTLTISSLQPEDFATYYCQQSNTSPLTFGQGTKVEIKRTVAAPSVFIFPPSDEQLKSGTASVVCLLNNFYPREAKVQWKVDNALQSGNSQESVTEQDSKDSTYSLSSTLTLSKADYEKHKVYACEVTHQGLSSPVTKSFNRGEC
notes: DVD-Ig; N-term; VD DLL4 (AB015), C-term; VD VEGF (AB071); HC linker short, LC linker short; 2'; 3'; also called DVD-Ig DVD467; DVD467H
B13: DVD473 (bispecific antibody, human IgG1, kappa)
heavy: not shown
light: DIQMTQSPSSLSASVGDRVTITCRASQDVSTAVAWYQQKPGKAPKLLIYSASFLYSGVPSRFSGSGSGTDFTLTISSLQPEDFATTYYCQQSYTGTVTFGQGTKVEIKRTVAAPSVFIFPPDIQMTQSPSSLSASVGDRVTITCRASQVIRRSLAWYQQKPGKAPKLLIYAASNLASGVPSRFSGSGSGTDFTLTISSLQPEDFATYYCQQSNTSPLTFGQGTKVEIKRTVAAPSVFIFPPSDEQLKSGTASVVCLLNNFYPREAKVQWKVDNALQSGNSQESVTEQDSKDSTYSLSSTLTLSKADYEKHKVYACEVTHQGLSSPVTKSFNRGEC
notes: DVD-Ig; N-term; VD DLL4 (AB015), C-term; VD VEGF (AB071); HC linker long, LC linker long; also called DVD-Ig DVD473; DVD473H
B14: DVD488 (bispecific antibody, human IgG1, kappa)
heavy: not shown
light: DIQMTQSPSSLSASVGDRVTITCSASQDISNYLNWYQQKPGKAPKVLIYFTSSLHSGVPSRFSGSGSGTDFTLTISSLQPEDFATYYCQQYSTVPWTFGQGTKVEIKRTVAAPDIQMTQSSSYLSVSLGGRVTITCKASDHINNWLAWYQQKPGNAPRLLISGATSLETGVPSRFSGSGSGKDYTLSITSLQTEDVATYYCQQYWSIPLTFGAGTKLELKRTVAAPSVFIFPPSDEQLKSGTASVVCLLNNFYPREAKVQWKVDNALQSGNSQESVTEQDSKDSTYSLSSTLTLSKADYEKHKVYACEVTHQGLSSPVTKSFNRGEC
notes: DVD-Ig; N-term; VD VEGF (AB014), C-term; VD DLL4 (AB072); HC linker short, LC linker short; also called DVD-Ig DVD488; DVD488H
B15: DVD512 (bispecific antibody, human IgG1, lambda, L234A L235A)
heavy: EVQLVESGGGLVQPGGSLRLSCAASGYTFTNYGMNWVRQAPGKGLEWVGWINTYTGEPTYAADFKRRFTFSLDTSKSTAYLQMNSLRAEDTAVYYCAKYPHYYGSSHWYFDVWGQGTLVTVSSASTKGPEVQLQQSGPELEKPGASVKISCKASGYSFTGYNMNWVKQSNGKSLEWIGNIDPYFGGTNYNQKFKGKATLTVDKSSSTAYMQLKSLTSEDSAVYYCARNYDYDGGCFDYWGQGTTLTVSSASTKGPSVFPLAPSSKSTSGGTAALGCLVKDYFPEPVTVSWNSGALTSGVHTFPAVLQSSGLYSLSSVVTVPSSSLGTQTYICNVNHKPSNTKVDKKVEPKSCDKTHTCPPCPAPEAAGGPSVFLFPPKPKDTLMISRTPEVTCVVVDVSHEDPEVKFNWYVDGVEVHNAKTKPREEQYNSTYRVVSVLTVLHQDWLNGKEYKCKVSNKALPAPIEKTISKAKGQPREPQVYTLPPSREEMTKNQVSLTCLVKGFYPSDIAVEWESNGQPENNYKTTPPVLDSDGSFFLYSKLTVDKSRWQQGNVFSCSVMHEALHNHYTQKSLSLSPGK
light: DIQMTQSPSSLSASVGDRVTITCSASQDISNYLNWYQQKPGKAPKVLIYFTSSLHSGVPSRFSGSGSGTDFTLTISSLQPEDFATYYCQQYSTVPWTFGQGTKVEIKRTVAAPQAVVTQESALTTSPGETVTLTCRSSTGAVTTSNYANWVQEKPDHLFTGLIGGTNNRAPGVPARFSGSLIGDKAALTITGAQTEDEAIYFCALWYSNHWVFGGGTKLTVLGQPKAAPSVTLFPPSSEELQANKATLVCLISDFYPGAVTVAWKADSSPVKAGVETTTPSKQSNNKYAASSYLSLTPEQWKSHRSYSCQVTHEGSTVEKTVAPTECS
notes: DVD-Ig; N-term; VD VEGF (AB014), C-term; VD DLL4 (AB073); HC linker short, LC linker short; also called DVD-Ig DVD512; DVD512H
B16: DVD524 (bispecific antibody, human IgG1, lambda)
heavy: not shown
light: B15 light
notes: DVD-Ig; N-term; VD VEGF (AB014), C-term; VD DLL4 (AB073); HC linker long, LC linker short; also called DVD-Ig DVD524; DVD524H

target: T1, VEGF (UniProt P15692-4 27-191); experiment: BIACORE SPR
T1 construct: Bought reagent; also called vascular endothelial growth factor
T1 sequence (P15692 other isoform, or with tags, fused parts or gaps limits assumed): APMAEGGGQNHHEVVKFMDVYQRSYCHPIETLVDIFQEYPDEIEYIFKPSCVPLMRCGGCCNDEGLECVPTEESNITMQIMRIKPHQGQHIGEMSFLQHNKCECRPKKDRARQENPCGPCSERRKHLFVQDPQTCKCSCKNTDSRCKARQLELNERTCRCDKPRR

Binder	Kd [nM]	koff [s⁻¹]	kon [M⁻¹ s⁻¹]
B1	0.00148	1.74e-07	118000
B2	0.0613	7.83e-06	128000
B3	0.466	0.000105	226000

target: T2, DLL4 (DLL ECD His tag, R&D 1506-D4-050) (UniProt Q9NR61 27-529); experiment: BIACORE (SPR), DVD-Ig against DLL4
T2 construct: extracellular domain; bought

Binder	Kd [nM]	koff [s⁻¹]	kon [M⁻¹ s⁻¹]
B4	1.39	0.000183	132000
B5	1.47	0.000104	70700
B6	1.03	7.02e-05	68400
B7	2.08	0.000232	111000
B8	3.72	0.000454	122000
B9	5.38	0.00219	407000
B10	8.4	0.000281	33400
B11	2.96	0.000167	56300
B12	0.302	0.000177	585000
B13	0.716	0.000161	226000
B14	0.418	6.62e-05	159000
B15	2.94	0.000757	258000
B16	9.45	0.000877	92800
